Experimental data from patent publication US20210139582A1.

Columns and labels:
[1] = target: C-terminus biotinylated monomeric human CD32a^H (FcγRIIa, histidine-131 variant), recombinant (human) (UniProt P12318); test: SPR, estimated steady state KD, monomeric IgG, pH 7.4
[2] = target: C-terminus biotinylated monomeric human CD32a^R (FcγRIIa, arginine-131 variant), recombinant (human) (UniProt P12318); test: as above
C-terminus biotinylated monomeric human CD32a^R (FcγRIIa, arginine-131 variant), recombinant (human), sequence (P12318 other isoform, or with tags, fused parts or gaps mutant): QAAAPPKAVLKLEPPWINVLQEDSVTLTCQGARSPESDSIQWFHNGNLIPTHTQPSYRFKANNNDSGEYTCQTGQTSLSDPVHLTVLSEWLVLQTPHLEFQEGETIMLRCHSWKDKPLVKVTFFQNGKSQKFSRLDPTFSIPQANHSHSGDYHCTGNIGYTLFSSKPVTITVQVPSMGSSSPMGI

C-terminus biotinylated monomeric human CD32a^H (FcγRIIa, histidine-131 variant), recombinant (human), sequence (P12318 34-218 limits assumed, change not shown): as the sequence (P12318 other isoform, or with tags, fused parts or gaps mutant) above, with R134H counted along it
anti-NIP mouse IgG2a (mIgG2a^WT) (antibody), sequence (P01863 whole entry): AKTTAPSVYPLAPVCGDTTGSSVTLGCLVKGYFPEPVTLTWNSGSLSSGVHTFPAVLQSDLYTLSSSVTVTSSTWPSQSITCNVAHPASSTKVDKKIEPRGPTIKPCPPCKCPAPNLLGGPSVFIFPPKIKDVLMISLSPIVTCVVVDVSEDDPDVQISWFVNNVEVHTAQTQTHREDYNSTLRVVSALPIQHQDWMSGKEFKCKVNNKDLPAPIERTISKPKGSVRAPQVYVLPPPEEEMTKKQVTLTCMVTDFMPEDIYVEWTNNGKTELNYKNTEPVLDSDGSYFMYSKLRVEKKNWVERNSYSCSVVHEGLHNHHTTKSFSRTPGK

| Substance | Kd [1] | Kd [2] |
| --- | --- | --- |
| anti-NIP chimeric IgG with wild type human IgG1 Fc and murine anti-NIP antigen-binding domain (hIgG1^WT) (antibody) | 1.3 µM | 2 µM |
| anti-NIP hIgG1-I253A/H310A/H435A (hIgG1^IHH) (from UniProt P01857 1-330) (antibody) |  | 3.7 µM |
| anti-NIP hIgG1-M252Y/S254T/T256E/H433K/N434F (hIgG1^MST/HN) (from UniProt P01857 1-330) (antibody) |  | 3.8 µM |
| anti-NIP hIgG2 (hIgG2^WT) (antibody) | 1.4 µM | 5.2 µM |
| anti-NIP mouse IgG1 (mIgG1^WT) (antibody) | 8.1 µM | 0.8 µM |
| anti-NIP mouse IgG2a (mIgG2a^WT) (antibody) | 3.4 µM | 3.6 µM |
| anti-NIP mouse IgG2b (mIgG2b^WT) (antibody) | 5 µM | 4.5 µM |
